First the molecules themselves.
B2: murine integrin α4Y991A β1 of CD11b+ myeloid cells from α4Y991A knockin mice (receptor, mouse)
chain 1: YNLDPENALLYQGPSGTLFGYSVVLHSHGSKRWLIVGAPTASWLSNASVVNPGAIYRCGIRKNPNQTCEQLQSGSPSGEPCGKTCLEERDNQWLGVTLSRQPGENGSIVTCGHRWKNIFYMKSDNKLPTGICYVMPSDLRTELSKRMAPCYKDYTRKFGENFASCQAGISSFYTQDLIVMGAPGSSYWTGTVFVYNITTNQYKAFVDRQNQVKFGSYLGYSVGAGHFRSPHTTEVVGGAPQHEQIGKAYIFSIDENELNIVYEMKGKKLGSYFGASVCAVDLNADGFSDLLVGAPMQSTIREEGRVFVYINSGMGAVMVEMERVLVGSDKYAARFGESIANLGDIDNDGFEDIAIGAPQEDDLRGAVYIYNGRVDGISSTYSQRIEGQQISKSLRMFGQSISGQIDADNNGYVDVAVGAFQSDSAVLLRTRPVVIVEASLSHPESVNRTKFDCTENGLPSVCMHLTLCFSYKGKEVPGYIVLFYNVSLDVHRKAESPSRFYFFSNGTSDVITGSIRVSSSGEKCRTHQAFMRKDVRDILTPIHVEATYHLGHHVITKRNTEEFPPLQPILQQKKEKDVIRKMINFARFCAYENCSADLQVSAKVGFLKPYENKTYLAVGSMKTIMLNVSLFNAGDDAYETTLNVQLPTGLYFIKILDLEEKQINCEVTESSGIVKLACSLGYIYVDRLSRIDISFLLDVSSLSRAHEDLSISVHASCENEGELDQVRDNRVTLTIPLRYEVMLTVHGLVNPTSFVYGSSEENEPETCMAEKLNLTFHVINTGISMAPNVSVKIMVPNSFLPQDDKLFNVLDVQTTTGQCHFKHYGRECTFAQQKGIAGTLTDIVKFLSKTDKRLLYCMKADQHCLDFLCNFGKMESGKEASVHIQLEGRPSILEMDETSSLKFEIKATAFPEPHPKVIELNKDENVAHVFLEGLHHQRPKRHFTIIIITISLLLGLIVLLLISCVMWKAGFFKRQYKSILQEENRRDSWSAVNSKSNDD
chain 2: QTDKNRCLKANAKSCGECIQAGPNCGWCTNTTFLQEGMPTSARCDDLEALKKKGCQPSDIENPRGSQTIKKNKNVTNRSKGMAEKLRPEDITQIQPQQLLLKLRSGEPQKFTLKFKRAEDYPIDLYYLMDLSYSMKDDLENVKSLGTDLMNEMRRITSDFRIGFGSFVEKTVMPYISTTPAKLRNPCTSEQNCTSPFSYKNVLSLTDRGEFFNELVGQQRISGNLDSPEGGFDAIMQVAVCGSLIGWRNVTRLLVFSTDAGFHFAGDGKLGGIVLPNDGQCHLENNVYTMSHYYDYPSIAHLVQKLSENNIQTIFAVTEEFQPVYKELKNLIPKSAVGTLSGNSSNVIQLIIDAYNSLSSEVILENSKLPDGVTINYKSYCKNGVNGTGENGRKCSNISIGDEVQFEISITANKCPNKESETIKIKPLGFTEEVEVVLQFICKCNCQSHGIPASPKCHEGNGTFECGACRCNEGRVGRHCECSTDEVNSEDMDAYCRKENSSEICSNNGECVCGQCVCRKRDNTNEIYSGKFCECDNFNCDRSNGLICGGNGVCRCRVCECYPNYTGSACDCSLDTGPCLASNGQICNGRGICECGACKCTDPKFQGPTCETCQTCLGVCAEHKECVQCRAFNKGEKKDTCAQECSHFNLTKVESREKLPQPVQVDPVTHCKEKDIDDCWFYFTYSVNGNNEAIVHVVETPDCPTGPDIIPIVAGVVAGIVLIGLALLLIWKLLMIIHDRREFAKFEKEKMNAKWDTGENPIYKSAVTTVVNPKYEGK
notes: whole, on cells; It may be mature-chain numbering and may not match the precursor entry; also called α4YA; YA

Assay [1] concerns integrin α4. In words: Integrin α4 clustering in CD11b+ cells. The class given is cell-based. The settings on record: SDF-1α or IL-1β induced. Here is the method:
Activation of human CD29 (integrin β1 chain) in cytokine stimulated human CD11b+ cells was quantified by flow cytometry using HUTS-21 antibodies (BD Bioscience). Total β1 integrin levels were assessed using P4C10 antibodies (Chemicon). 2.5×10^6 freshly isolated human myeloid cells/ml in culture medium containing 5% FBS and 0.5% NaN3 were incubated in 10 μg/ml normal human immunoglobulin (12000C, Caltag) for 45 min on ice, then in 2 μg/ml SDF-1α, IL-1β, IL-6 or 1 mM Mn2+ plus 2.5 μg HUTS21, P4C10, or IgG2 control for 10 min at 37° C. followed by Alexa 488 goat-anti mouse antibodies for 20 min on ice. Expression levels of murine integrin α4 on bone marrow derived cells were determined by flow cytometry for PE-conjugated R1/2 (rat anti-CD49d antibody, eBioscience). To induce integrin α4 activation on human myeloid cells or murine WT and α4Y991A myeloid, purified CD11b+ cells were incubated with polystyrene microspheres (9.0 μm diameter, Bangs Laboratories) coated with TCM, 2 μg/ml SDF-1α or IL-1β overnight at 4° C. cells as previously described by Grabovsky et al., 2000. […] Samples were analyzed by Nikon CS1 spectral confocal on a Nikon TE2000E inverted microscopy. Images were captured using EZ-C13.00 imaging software and analyzed using Metamorph software.

Assay [2] relates to CD11b+ cells adhesion to endothelium. In words: Adhesion of CD11b+ cells to endothelium (Example 1 adhesion assay). The class given is cell-based, murine. The settings on record: SDF-1α, TCM or IL-1β (and other chemoattractant) induced. Here is the method:
TCM was prepared from serum-free media cultured on LLC cells for 18 h and filtered through 0.22 μm filters. 10^5 calcein-AM labelled human or murine CD11b+ cells in TCM or DMEM containing 200 ng/ml SDF-1α, IL-1β, IL-6, IL-8 or VEGF-A (R&D Systems) were incubated on HUVEC monolayers or on plastic plates coated with 5 μg/ml recombinant soluble VCAM-1 (R&D Systems). Adherent cells were quantified using a fluorescence activated plate reader (GeniosPro, TECAN). In some assays, cells were also incubated in 25 μg/ml anti-integrin α4β1 (PS2 for murine cells and HP2/1 for human cells, gifts from Biogen-Idec) and isotype control antibodies (IgG2bk for murine cells and IgG1 for human cells). In some studies, cells were incubated in 10 μM pan PI3K inhibitors […] or TG020, in PI3kinase α inhibitor PI3K75, PI3kinase γ/δ inhibitor TG115 and an inert control.

Assay [3] has as its target B2. The experiment in a line: flow cytometry of VCAM-1/Fc on CD11b+ cells (FIG. 27e). Here is the method: (§1) 5×10⁵ CD11b+ cells isolated from WT, α4Y991A, or PI3-kinase γ−/− mice (naïve or tumour-bearing) were incubated with 200 ng/ml IL-1β, SDF-1α, IL-6, TNFα, VEGF-A or medium together with 1 mg/ml mouseVCAM-1/humanFc fusion protein (R&D Systems) for 3 min. Cells were washed twice and incubated with donkey anti-human-FC-PE antibody (Jackson Immunoresearch) then analysed by FACs Calibur. Mean fluorescence intensity of treated cells was compared to that of unstimulated cells (basal). In other studies, cells from WT mice were untreated or were treated with 1 μM PI3-kinase α, β, or γ inhibitors for 30 min at 37° C. In some experiments GFP/RapV12 or GFP/RasV12 transfected CD11b+ cells were used. In this case, increased mean fluorescence intensity was measured for only GFP-positive cells.
A general note: In flow cytometry, cells or beads pass a laser one at a time.

Assay [4] deals with T1, murine integrin α4β1 (wildtype) of CD11b+ myeloid cells (mouse, UniProt Q00651 41-1039; P09055 21-798).
T1 construct: whole, on cells; In the co-immunoprecipitations it was precipitated from CHAPS lysates of bone marrow cells with PS/2; also called VLA-4; VLA4
The experiment in a line: flow cytometry, VCAM-1/Fc on murine CD11b+ cells (FIG. 27e). Here is the method:
as §1

In assay [5] the target is T2, talin (murine, endogenous in bone marrow derived myeloid cells) (mouse, UniProt P26039 1-2541).
T2 construct: Detected by immunoblot with anti-talin clone TD77
The experiment in a line: co-immunoprecipitation with PS/2, immunoblot (FIG. 3d). Here is the method: BM monocytic cells from WT or α4Y991A mice were isolated as described above and treated with either DMEM or TCM for 30 min at 37° C. Cells were rinsed with cold PBS and lysed in Tris-buffered saline containing 1% CHAPS, 20 mM β-glycerophosphate, 1 mM Na₃VO₄, 5 mM NaF, 100 ng/ml microcystin-LR, and protease inhibitor cocktail. Clarified cell lysates were immunoprecipitated as follows: 1 mg total protein was precleared with 10 μl protein G-conjugated Dynabeads (Invitrogen) for 1 hr with rotation. Cleared lysates were incubated with 5 μg of rat anti-α4β1 (PS/2) antibody overnight, followed by adding 25 μl of protein G-conjugated Dynabeads for 3 h with rotation. Beads were washed three times with 1 ml cold PBS containing protease inhibitor cocktail. Protein precipitates were electrophoresed on 10% SDS-PAGE gels and immunoblotted with anti-integrin α4 (C-20, Santa Cruz Biotechnology), anti-talin (Clone TD77, Chemicon) or anti-paxillin (H-114, Santa Cruz Biotechnology) antibodies. Immune complexes were visualized using an enhanced chemiluminescence detection kit (Pierce).
BM cells (comprised of 80% CD11b+Gr1+ cells) from WT or α4Y991A mice were isolated as described above and treated with either DMEM or TCM for 30 min at 37° C. […]

T2 sequence (P26039 whole entry): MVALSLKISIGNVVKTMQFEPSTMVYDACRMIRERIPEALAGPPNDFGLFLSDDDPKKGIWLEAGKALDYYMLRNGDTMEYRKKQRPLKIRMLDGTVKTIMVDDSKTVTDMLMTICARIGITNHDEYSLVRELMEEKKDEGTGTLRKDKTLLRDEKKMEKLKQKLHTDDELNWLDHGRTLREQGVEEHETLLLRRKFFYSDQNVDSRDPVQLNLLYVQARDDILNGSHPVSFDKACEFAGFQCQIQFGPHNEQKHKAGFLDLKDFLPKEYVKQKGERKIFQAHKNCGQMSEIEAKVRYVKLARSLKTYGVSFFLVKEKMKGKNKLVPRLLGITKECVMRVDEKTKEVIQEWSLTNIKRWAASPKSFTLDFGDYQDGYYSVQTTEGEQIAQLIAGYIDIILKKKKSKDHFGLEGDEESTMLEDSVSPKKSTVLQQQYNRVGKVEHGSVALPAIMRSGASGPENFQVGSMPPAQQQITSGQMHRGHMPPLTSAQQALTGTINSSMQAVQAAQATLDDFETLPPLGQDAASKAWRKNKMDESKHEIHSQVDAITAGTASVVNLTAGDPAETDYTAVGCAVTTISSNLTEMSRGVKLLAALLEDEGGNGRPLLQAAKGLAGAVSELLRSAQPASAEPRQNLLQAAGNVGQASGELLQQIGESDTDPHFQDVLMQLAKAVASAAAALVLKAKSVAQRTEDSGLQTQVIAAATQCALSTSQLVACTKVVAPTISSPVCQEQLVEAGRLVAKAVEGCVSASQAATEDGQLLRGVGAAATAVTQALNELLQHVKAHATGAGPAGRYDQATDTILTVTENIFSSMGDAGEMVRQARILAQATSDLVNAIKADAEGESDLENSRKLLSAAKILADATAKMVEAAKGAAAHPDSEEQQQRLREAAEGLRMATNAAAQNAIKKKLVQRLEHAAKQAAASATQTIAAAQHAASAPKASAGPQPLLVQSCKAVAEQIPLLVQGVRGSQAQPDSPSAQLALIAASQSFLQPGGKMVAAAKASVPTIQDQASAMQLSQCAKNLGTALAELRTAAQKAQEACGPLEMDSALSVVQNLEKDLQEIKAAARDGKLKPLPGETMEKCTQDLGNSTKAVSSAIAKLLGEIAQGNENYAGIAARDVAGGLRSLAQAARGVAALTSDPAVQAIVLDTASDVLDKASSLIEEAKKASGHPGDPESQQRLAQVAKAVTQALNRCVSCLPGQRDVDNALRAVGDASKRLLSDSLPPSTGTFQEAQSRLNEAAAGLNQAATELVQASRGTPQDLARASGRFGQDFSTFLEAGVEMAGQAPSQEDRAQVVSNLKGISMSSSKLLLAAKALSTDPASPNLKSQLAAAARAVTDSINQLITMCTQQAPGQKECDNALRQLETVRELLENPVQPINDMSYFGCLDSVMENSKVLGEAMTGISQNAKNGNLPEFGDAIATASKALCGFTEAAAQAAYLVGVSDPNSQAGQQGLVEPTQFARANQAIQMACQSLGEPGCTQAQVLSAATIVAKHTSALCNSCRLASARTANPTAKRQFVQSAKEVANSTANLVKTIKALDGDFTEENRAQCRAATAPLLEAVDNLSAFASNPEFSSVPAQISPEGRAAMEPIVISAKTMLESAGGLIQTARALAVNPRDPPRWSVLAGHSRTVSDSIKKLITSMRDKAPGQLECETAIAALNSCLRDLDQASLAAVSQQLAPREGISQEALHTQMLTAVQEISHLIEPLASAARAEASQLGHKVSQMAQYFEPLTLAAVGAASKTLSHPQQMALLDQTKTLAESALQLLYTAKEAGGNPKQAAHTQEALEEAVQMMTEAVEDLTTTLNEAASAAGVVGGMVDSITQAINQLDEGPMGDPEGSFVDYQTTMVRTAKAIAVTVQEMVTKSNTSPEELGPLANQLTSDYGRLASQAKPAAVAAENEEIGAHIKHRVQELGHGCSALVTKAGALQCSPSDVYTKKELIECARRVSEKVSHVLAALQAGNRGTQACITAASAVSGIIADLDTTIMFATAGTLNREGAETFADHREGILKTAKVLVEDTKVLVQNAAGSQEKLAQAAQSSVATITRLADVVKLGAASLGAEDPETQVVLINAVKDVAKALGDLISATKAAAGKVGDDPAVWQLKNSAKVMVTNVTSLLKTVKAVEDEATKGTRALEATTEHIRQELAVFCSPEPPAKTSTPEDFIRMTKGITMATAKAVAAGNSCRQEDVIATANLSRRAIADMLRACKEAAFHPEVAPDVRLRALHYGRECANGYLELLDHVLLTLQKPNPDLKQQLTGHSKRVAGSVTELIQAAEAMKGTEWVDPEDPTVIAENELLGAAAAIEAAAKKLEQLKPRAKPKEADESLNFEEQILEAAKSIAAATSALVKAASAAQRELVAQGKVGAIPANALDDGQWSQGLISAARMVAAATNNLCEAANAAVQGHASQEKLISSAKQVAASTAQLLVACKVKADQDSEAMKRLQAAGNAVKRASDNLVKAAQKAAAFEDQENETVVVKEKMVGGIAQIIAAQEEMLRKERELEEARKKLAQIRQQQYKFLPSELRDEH

Regarding pertussis toxin, in assay [1], the “integrin α4 clustering” value is “blocked SDF-1α-induced integrin clustering”. Also, the “CD11b+ cell adhesion to endothelium” value in assay [2] was “inhibited SDF-1α, and TCM-induced but not IL-1β induced adhesion”.

B1: mouseVCAM-1/humanFc fusion protein (R&D Systems) (Fc fusion, UniProt P29533 25-698, looked up)
chain: FKIEISPEYKTIAQIGDSMALTCSTTGCESPLFSWRTQIDSPLNAKVRTEGSKSVLTMEPVSFENEHSYLCTATCGSGKLERSIHVDIYSFPKDPEIQFSGPLEVGKPVTVKCLAPDIYPVYRLEIDLFKGDQLMNRQEFSSEEMTKSLETKSLEVTFTPVIEDIGKALVCRAKLHIDQIDSTLKERETVKELQVYISPRNTTISVHPSTRLQEGGAVTMTCSSEGLPAPEIFWGRKLDNEVLQLLSGNATLTLIAMRMEDSGVYVCEGVNLIGRDKAEVELVVQEKPFIVDISPGSQVAAQVGDSVVLTCAAIGCDSPSFSWRTQTDSPLNGVVRNEGAKSTLVLSSVGFEDEHSYLCAVTCLQRTLEKRTQVEVYSFPEDPVIKMSGPLVHGRPVTVNCTVPNVYPFDHLEIELLKGETTLMKKYFLEEMGIKSLETKILETTFIPTIEDTGKSLVCLARLHSGEMESEPKQRQSVQPLYVNVAPKETTIWVSPSPILEEGSPVNLTCSSDGIPAPKILWSRQLNNGELQPLSENTTLTFMSTKRDDSGIYVCEGINEAGISRKSVELIIQVSPKDIQLTVFPSKSVKEGDTVIISCTCGNVPETWIILKKKAKTGDMVLKSVDGSYTIRQAQLQDAGIYECESKTEVGSQLRSLTLDVKGKEHNKDYFSPE
notes: Bought reagent; Detected with donkey anti-human-FC-PE; also called VCAM-1/Fc; VCAM-1/FC; not shown: human Fc
For B1, the binding result was “no binding” in assay [3] and “binds” in assay [4].
For the molecule B2, in assay [5], the binding result was “no binding”.

The record behind these values is US20100278837A1, “Compositions And Methods For Reducing Cancer And Inflammation” (The Regents of the University of California, priority 2009, published 2010).
